Reference: US20260008817A1, “CYCLIC PEPTIDE OR SALT THEREOF, AND USES THEREOF” (FUJIFILM Corporation, priority 2023, published 2026)

Molecular target: T1, FGFR3 Protein, Human, Recombinant (ECD, His Tag) (Homo sapiens, UniProt P22607)
T1 construct: FGFR3 Protein, Human, Recombinant (ECD, His Tag); His tag; purchased Sino Biological 16044-H08H
T1 sequence (P22607 23-375 limits assumed): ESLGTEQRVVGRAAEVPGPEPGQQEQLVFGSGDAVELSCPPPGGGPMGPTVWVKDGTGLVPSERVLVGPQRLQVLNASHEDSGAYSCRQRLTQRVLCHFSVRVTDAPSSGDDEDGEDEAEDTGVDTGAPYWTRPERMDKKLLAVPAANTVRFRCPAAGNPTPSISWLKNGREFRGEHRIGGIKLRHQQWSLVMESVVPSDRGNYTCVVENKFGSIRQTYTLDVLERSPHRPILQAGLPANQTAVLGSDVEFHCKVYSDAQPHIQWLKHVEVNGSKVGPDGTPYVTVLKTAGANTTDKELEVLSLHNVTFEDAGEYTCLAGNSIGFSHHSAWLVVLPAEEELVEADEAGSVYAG
Assay: SPR FGFR versatility, FGFR3 on immobilized cyclic peptide
Assay type: binding
Conditions: 1 μmol/L FGFR, 25° C.
Protocol: The binding of the cyclic peptide to various types of FGFRs was evaluated using a surface plasmon resonance (SPR) method.
The binding affinity of the chemically synthesized cyclic peptide to FGFR was evaluated by the following procedure.
A CM5 sensor chip (Cytiva, 29149603) was set in Biacore-T200 (manufactured by Cytiva) which is a surface plasmon resonance device, and an HBS-EP buffer (Cytiva, BR100826) was added as a running buffer at a flow rate of 10 μL/min to equilibrate the flow channel. Next, 70 μL of a mixed aqueous solution of 0.2 mol/L 1-(3-dimethylaminopropyl)-3-ethylcarbodiimide (EDC) and 0.05 mol/L N-hydroxysuccinimide (NHS) was added to activate the sensor chip. Then, a cyclic peptide prepared to 2 mg/mL in HBS-EP buffer was added thereto to perform immobilization at about 200 RU. […]
After various FGFRs (FGFR1 Protein, Human, Recombinant (His Tag) (Sino Biological, 10616-H08H), FGFR3 Protein, Human, Recombinant (ECD, His Tag) (Sino Biological, 16044-H08H), FGFR4 Protein, Human, Recombinant (His Tag) (Sino Biological, 10538-H08H)) diluted with HBS-EP to 1 μmol/L at 25° C. was added to each flow channel of the cyclic peptide-immobilized sensor chip prepared above, for 10 minutes, HBS-EP was allowed to flow as a running buffer for 30 minutes, and the binding of various FGFRs to the cyclic peptide was measured. […]

For “335 (ACVWTFDRHAQEISQALHKVKKK; not fully specified; Description of Artificial Sequence: Cyclic peptide) [compound 335]”, the “Evaluation result of binding affinity to FGFR3” value was “B (The binding amount is 0.01 molecules of FGFR/one molecule of the cyclic peptide or more and less than 0.05 molecules of FGFR/one molecule of the cyclic peptide.)”.
